Here are results for three substances from US10087225B2, “Formulation of MK2 inhibitor peptides” (MOERAE MATRIX, INC., priority 2015, dated 2018).

Some targets named below: cKit(V560G)(h) (Homo sapiens, UniProt P10721, V560G); cKit(D816H)(h) (Homo sapiens, UniProt P10721, D816H); FGFR1(V561M)(h) (Homo sapiens, UniProt P11362, V561M); HIPK1(h) (Homo sapiens, UniProt Q86Z02); Flt3(D835Y)(h) (Homo sapiens, UniProt P36888, D835Y); TrkA(h) (Homo sapiens, UniProt P04629).
What all share (assay): Kinase Profiling Assay
Holding throughout (type): biochemical

The next test has as its target T1, MuSK(h) (Homo sapiens, UniProt O15146).
T1 sequence (O15146 24-869): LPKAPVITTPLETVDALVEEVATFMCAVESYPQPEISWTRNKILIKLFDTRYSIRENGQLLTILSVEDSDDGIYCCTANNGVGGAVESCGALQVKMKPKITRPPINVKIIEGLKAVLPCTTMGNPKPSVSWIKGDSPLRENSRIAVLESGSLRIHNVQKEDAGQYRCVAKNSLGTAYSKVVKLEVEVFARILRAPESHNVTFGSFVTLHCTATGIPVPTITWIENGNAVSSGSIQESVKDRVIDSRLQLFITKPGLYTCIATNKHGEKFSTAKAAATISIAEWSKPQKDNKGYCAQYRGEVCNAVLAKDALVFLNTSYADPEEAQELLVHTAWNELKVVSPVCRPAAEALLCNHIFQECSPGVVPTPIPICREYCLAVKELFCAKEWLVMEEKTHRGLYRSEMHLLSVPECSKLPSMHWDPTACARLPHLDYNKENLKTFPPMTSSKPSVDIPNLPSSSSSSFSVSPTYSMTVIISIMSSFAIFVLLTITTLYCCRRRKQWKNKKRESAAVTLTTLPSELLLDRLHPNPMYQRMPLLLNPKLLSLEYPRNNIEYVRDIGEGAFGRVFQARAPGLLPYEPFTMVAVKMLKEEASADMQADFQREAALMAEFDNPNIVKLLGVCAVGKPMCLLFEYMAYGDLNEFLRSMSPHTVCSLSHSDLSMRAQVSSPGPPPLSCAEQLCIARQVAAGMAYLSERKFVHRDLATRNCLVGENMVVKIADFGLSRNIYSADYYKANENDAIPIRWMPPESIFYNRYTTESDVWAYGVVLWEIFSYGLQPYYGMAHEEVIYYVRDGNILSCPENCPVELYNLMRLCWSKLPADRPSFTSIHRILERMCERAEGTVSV

The target of another test is PKCβI(h) (Homo sapiens, UniProt P05771). To be noted: 100 μM.
The target in the next test is NEK7(h) (Homo sapiens, UniProt Q8TDX7). To be noted: 100 μM.
In a further test the target is CaMKIIδ(h) (Homo sapiens, UniProt Q13557). Conditions: 100 μM.
The target of a further test is BTK(h) (Homo sapiens, UniProt Q06187). Conditions: 100 μM.
A further test concerns the target ACK1(h) (Homo sapiens, UniProt Q07912). Conditions: 100 μM.
A further test has as its target Pim-2(h) (Homo sapiens, UniProt Q9P1W9). To be noted: 100 μM.
For the next test, the target named is Arg(h) (Homo sapiens, UniProt P42684). Conditions: 100 μM.
The target in another test is T2, TSSK2(h) (Homo sapiens, UniProt Q96PF2).
T2 sequence (Q96PF2 1-358): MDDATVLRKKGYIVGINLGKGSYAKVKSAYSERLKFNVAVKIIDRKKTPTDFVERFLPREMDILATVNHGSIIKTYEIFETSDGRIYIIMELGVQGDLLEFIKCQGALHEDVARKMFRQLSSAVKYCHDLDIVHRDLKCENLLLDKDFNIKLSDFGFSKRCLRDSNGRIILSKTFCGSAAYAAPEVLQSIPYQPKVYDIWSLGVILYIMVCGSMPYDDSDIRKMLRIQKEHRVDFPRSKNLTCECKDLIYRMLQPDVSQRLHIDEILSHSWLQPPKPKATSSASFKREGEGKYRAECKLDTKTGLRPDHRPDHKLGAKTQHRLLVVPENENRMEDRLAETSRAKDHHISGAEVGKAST
Conditions: 100 μM.

The target of the next test is NEK6(h) (Homo sapiens, UniProt Q9HC98). To be noted: 100 μM.
Another test deals with SAPK2b(h) (Homo sapiens, UniProt Q15759). To be noted: 100 μM.
Another test deals with AMPKa1(h) (Homo sapiens, UniProt Q13131). To be noted: 100 μM.
For a further test, the target named is Lyn(h) (Homo sapiens, UniProt P07948). To be noted: 100 μM.
The target of the next test is FGFR4(h) (Homo sapiens, UniProt P22455). To be noted: 100 μM.
A further test addresses EGFR(T790M,L858R)(h) (Homo sapiens, UniProt P00533, L858R/T790M). To be noted: 100 μM.
The next test deals with Aurora-B(h) (Homo sapiens, UniProt Q96GD4). To be noted: 100 μM.
For the next test, the target named is CaMKI(h) (Homo sapiens, UniProt Q14012). Conditions: 100 μM.
In a further test the target is PDGFRα(h) (Homo sapiens, UniProt P16234). To be noted: 100 μM.
For the next test, the target named is PKBβ(h) (Homo sapiens, UniProt P31751). Conditions: 100 μM.

TrkA(h), sequence (P04629 33-796): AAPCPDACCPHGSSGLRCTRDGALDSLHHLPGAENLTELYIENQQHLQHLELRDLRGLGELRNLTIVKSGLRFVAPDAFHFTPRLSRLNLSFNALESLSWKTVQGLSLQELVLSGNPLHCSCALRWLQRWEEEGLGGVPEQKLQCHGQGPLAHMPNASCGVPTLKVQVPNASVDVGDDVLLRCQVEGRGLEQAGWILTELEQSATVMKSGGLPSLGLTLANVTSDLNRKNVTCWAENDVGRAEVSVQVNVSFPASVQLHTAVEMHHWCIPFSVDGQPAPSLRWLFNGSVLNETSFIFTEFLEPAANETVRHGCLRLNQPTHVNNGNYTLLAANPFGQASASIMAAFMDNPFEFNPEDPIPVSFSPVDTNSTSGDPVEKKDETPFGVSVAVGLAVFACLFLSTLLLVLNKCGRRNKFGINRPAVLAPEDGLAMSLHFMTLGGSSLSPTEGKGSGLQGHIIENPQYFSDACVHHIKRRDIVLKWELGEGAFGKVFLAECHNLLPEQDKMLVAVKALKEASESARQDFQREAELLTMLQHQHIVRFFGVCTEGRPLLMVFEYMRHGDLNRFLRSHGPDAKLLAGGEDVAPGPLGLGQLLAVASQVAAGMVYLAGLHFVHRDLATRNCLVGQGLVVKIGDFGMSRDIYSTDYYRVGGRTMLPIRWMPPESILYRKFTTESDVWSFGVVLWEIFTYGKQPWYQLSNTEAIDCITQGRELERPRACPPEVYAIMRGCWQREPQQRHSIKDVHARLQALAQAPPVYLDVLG
BTK(h), sequence (Q06187 whole entry): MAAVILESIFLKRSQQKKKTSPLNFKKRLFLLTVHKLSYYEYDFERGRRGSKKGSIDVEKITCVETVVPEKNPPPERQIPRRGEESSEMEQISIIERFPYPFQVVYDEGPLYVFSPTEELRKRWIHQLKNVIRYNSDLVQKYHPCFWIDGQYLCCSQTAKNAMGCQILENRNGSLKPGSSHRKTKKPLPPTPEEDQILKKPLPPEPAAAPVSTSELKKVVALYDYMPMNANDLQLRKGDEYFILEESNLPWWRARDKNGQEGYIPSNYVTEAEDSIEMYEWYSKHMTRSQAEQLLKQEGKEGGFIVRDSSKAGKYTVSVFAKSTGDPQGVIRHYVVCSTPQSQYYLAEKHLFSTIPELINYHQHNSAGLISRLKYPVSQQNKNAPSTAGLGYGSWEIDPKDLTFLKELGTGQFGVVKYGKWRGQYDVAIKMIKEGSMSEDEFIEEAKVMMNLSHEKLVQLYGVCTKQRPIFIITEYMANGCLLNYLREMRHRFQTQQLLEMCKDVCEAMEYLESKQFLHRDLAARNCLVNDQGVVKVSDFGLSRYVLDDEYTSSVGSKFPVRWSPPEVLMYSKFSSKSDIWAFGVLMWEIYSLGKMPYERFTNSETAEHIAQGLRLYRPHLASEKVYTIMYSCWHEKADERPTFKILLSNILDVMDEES
SAPK2b(h), sequence (Q15759 whole entry): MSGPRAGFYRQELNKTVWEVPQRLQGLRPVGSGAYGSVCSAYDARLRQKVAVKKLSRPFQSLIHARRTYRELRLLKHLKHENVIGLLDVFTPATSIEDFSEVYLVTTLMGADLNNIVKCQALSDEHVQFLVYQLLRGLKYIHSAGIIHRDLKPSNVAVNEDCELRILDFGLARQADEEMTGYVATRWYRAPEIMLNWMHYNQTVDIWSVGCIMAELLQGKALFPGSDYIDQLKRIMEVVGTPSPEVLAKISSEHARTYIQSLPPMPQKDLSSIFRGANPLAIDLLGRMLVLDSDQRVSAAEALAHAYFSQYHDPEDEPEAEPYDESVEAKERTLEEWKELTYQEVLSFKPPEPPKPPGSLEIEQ
NEK6(h), sequence (Q9HC98 whole entry): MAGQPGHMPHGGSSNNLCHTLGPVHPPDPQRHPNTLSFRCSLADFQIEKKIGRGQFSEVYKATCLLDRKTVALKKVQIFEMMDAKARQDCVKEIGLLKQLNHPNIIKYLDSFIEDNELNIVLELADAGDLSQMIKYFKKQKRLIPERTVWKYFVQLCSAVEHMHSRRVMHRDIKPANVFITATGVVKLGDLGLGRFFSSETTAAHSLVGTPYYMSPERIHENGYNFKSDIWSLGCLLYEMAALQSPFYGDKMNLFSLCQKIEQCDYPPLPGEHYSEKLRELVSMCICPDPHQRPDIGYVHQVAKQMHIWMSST
HIPK1(h), sequence (Q86Z02 whole entry): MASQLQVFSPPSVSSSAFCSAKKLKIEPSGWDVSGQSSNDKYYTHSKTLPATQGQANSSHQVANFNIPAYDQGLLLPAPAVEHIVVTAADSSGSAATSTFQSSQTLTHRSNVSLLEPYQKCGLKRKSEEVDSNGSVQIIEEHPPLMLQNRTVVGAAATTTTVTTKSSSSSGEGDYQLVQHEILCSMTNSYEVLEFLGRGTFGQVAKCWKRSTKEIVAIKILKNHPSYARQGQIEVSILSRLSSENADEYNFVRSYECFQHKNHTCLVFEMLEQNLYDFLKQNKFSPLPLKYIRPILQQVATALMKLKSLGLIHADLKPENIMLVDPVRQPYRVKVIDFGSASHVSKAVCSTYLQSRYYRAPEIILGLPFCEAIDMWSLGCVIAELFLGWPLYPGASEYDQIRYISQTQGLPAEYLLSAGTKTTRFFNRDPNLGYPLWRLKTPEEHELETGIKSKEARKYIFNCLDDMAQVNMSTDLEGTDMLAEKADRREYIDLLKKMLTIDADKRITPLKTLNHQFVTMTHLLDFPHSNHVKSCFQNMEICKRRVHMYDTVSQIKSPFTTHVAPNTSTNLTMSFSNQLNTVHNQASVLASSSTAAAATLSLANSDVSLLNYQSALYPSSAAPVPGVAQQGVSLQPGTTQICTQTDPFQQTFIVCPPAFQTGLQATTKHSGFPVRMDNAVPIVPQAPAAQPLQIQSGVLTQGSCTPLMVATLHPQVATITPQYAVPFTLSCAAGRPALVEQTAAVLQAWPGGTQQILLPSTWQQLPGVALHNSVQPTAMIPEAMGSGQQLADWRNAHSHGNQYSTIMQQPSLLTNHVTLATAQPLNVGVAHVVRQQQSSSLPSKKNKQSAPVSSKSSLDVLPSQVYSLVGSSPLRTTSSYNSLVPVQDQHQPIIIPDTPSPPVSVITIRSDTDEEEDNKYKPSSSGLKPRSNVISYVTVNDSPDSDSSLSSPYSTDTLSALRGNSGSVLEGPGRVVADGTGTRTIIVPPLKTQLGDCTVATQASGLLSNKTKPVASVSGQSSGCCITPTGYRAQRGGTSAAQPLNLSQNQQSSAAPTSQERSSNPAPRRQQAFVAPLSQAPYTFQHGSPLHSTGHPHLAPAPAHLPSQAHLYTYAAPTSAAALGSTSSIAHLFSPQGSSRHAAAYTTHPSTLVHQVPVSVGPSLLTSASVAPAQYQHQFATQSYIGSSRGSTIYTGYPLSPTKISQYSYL
ACK1(h), sequence (Q07912 whole entry): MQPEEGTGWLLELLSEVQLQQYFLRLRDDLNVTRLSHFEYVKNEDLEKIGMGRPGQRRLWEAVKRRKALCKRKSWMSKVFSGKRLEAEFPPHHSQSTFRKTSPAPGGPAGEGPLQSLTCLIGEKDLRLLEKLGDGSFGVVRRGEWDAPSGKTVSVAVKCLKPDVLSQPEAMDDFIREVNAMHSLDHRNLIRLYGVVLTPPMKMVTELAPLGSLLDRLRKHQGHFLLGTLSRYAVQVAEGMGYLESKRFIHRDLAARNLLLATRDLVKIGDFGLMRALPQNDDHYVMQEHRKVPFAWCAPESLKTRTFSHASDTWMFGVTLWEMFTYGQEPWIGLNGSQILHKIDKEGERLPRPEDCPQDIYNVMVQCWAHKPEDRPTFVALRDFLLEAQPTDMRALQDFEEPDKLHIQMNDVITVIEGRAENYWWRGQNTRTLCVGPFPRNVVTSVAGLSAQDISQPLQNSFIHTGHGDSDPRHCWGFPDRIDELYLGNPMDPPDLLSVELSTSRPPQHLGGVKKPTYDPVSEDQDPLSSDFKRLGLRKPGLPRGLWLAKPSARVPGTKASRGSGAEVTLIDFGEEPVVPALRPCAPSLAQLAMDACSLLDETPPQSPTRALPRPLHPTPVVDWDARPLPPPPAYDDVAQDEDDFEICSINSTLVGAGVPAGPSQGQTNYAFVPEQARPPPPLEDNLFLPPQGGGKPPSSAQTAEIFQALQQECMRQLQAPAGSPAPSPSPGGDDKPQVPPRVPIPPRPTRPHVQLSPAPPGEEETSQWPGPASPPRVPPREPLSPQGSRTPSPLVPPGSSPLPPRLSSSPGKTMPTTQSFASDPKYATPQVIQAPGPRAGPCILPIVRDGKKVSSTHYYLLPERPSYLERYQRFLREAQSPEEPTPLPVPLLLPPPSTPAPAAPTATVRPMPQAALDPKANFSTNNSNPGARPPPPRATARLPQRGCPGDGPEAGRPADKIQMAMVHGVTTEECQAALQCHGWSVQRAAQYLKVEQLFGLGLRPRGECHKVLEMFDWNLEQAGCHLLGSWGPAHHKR
NEK7(h), sequence (Q8TDX7 whole entry): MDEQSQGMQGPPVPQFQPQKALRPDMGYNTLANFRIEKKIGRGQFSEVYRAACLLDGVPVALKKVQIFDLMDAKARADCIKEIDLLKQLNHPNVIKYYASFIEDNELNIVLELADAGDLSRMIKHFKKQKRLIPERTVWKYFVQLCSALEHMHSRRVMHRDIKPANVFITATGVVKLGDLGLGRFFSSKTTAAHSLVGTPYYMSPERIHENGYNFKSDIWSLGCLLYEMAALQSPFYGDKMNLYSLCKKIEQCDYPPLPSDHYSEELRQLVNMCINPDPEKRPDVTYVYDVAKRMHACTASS
CaMKI(h), sequence (Q14012 whole entry): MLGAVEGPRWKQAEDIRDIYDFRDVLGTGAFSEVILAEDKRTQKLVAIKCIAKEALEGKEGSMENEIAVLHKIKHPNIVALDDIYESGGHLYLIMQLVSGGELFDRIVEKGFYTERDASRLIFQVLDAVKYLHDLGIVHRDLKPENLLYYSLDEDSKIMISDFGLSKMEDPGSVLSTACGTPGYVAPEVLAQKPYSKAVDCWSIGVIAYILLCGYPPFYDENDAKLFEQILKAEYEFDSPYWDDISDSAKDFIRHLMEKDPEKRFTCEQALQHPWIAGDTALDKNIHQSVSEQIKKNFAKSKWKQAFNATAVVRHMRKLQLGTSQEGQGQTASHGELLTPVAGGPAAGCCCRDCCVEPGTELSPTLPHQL

For the substance H-YARAAARQARAKALARQLGVAA-OH [MMI-0100], the activity at 100 µM was found to be 94% on cKit(V560G)(h); 79% at cKit(D816H)(h); 108% at FGFR1(V561M)(h); 85% at MuSK(h); 94% at HIPK1(h); 120% at Flt3(D835Y)(h). At TrkA(h), the activity at 100 µM came to 74%.
Take “HRRIKAWLKKIKALARQLGVAA (Mammalian) [MMI-0500]”: the “% activity” value with PKCβI(h) was 1%; with NEK7(h) it was 89%; with CaMKIIδ(h) it was 1%; in the test with BTK(h), 18%; in the test with ACK1(h), 64%; with Pim-2(h) it was 46%. The “% activity” value came out at 22% in the test with Arg(h); 92% in the test with TSSK2(h); 49% with NEK6(h); 198% with cKit(V560G)(h) (100 μM); 194% with cKit(D816H)(h) (100 μM); 42% with SAPK2b(h). The “% activity” value is recorded as 35% in the test with AMPKa1(h); 31% with Lyn(h); 3% in the test with FGFR4(h); 53% with EGFR(T790M,L858R)(h); 27% with MuSK(h) (100 μM); 5% in the test with Aurora-B(h). The “% activity” value with CaMKI(h) is -1%; with HIPK1(h) (100 μM), 47%; in the test with PDGFRα(h) it was 40%; with Flt3(D835Y)(h) (100 μM), 65%; with PKBβ(h), 21%; with TrkA(h) (100 μM) it was 24%.
With “YARAAARQARAKALNRQLGVA (Mammalian) [MMI-0200]”, the “% activity” value in the test with PKCβI(h) was determined as 98%; with NEK7(h), 96%; with CaMKIIδ(h), 2%; in the test with BTK(h), 100%; with ACK1(h), 97%; with Pim-2(h), 74%. Further, the “% activity” value with Arg(h) worked out at 82%; with TSSK2(h), 91%; with NEK6(h) it was 98%; with SAPK2b(h), 95%; in the test with AMPKa1(h), 108%; with Lyn(h) it was 98%. Also, the “% activity” value in the test with FGFR4(h) is on record as 75%; with EGFR(T790M,L858R)(h) it was 108%; with FGFR1(V561M)(h) (100 μM), 72%; with Aurora-B(h), 166%; with CaMKI(h), 21%; with PDGFRα(h) it was 108%. Moreover, in the test with PKBβ(h), the “% activity” value came to 250%.
